The target of the assay is MADD with deletion of exon 30 (dex30), MAC-tagged (human) (UniProt Q8WXG6). As to the kind of experiment: affinity purification with mass spectrometry + proximity labelling; AP-MS and BioID with MAC-tagged MADD (wild-type or dex30) in Flp-In T-REx 293 cells; the text does not tell which of the two approaches gave this result (Figure 7).

Take “ubiquitin-specific peptidase 9 X-linked (from UniProt Q93008 1-2554) (natural protein)”: the fold change of relative abundance against wild-type MADD worked out at 24 fold.

The record behind these values is article PMC11141940.
